Results on two molecules are retold here after publication PMC6169973, “RAIDD mutations underlie the pathogenesis of thin lissencephaly (TLIS)” (PLoS ONE, 2018).

B2: PIDD DD (777-883) (domain or fragment, UniProt Q9HB75 777-883, looked up)
chain: LNLGDAETGFLTQSNLLSVAGRLGLDWPAVALHLGVSYREVQRIRHEFRDDLDEQIRHMLFSWAERQAGQPGAVGLLVQALEQSDRQDVAEEVRAVLELGRRKYQDS
notes: PIDD (p53-induced protein with a death domain), death domain, residues 777-883; also called PD-DD; PIDD death domain; source: E. coli BL21 (DE3) RILP, purified (Ni-NTA, size exclusion S-200)

The target in the experiment “PIDD DD (777-883)” is B2. Kind of experiment: SEC; RAIDD (full length, DD or mutant) mixed with a molar excess of PIDD DD, 30 min at room temperature; Superdex 200 HR 10/30 in 20 mM Tris-HCl pH 8.0, 150 mM NaCl; fractions on SDS-PAGE, Coomassie. The conditions noted are these: both partners purified. Background: In gel filtration, larger molecules generally elute earlier.

In experiment [1] the target is T1, full-length RAIDD (1-199), wild type (UniProt P78560 1-199).
T1 construct: RAIDD, full length, residues 1-199 (CARD and DD); also called RD; wild-type full-length RAIDD; source: E. coli BL21 (DE3) RILP, purified (Ni-NTA, size exclusion S-200)
T1 sequence (P78560 whole entry, the tested form may be a part): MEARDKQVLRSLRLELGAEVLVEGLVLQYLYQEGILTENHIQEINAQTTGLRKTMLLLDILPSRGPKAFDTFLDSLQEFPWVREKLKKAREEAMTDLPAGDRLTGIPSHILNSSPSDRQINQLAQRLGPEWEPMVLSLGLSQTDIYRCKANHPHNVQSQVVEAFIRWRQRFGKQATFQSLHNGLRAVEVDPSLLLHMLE
The experiment is described as above. The conditions noted are these: both partners purified.

B1: RAIDD DD (94-199), wild type (domain or fragment)
chain: not shown
notes: RAIDD (RIP-associated Ich-1/Ced-3 homologous protein with a death domain), death domain, residues 94-199; also called RD-DD; RAIDD death domain; source: E. coli BL21 (DE3) RILP, purified (Ni-NTA, size exclusion S-200)
B1: the binding result with PIDD DD (777-883) is on record as “binds”. As for B2, the binding result in experiment [1] is listed as “binds”.
